This test deals with SARS-CoV-2 spike receptor-binding domain, prototype (RBD-WT) (SARS-CoV-2, UniProt P0DTC2 333-528). Nature of the test: BLI.

Substitutions are numbered along the chain they refer to. Where “and” joins values, the source holds several entries; their conditions need not be identical. Equal values may be shown once.

B1: VYD222 Fab (Fab, V domains shown)
VH: EVQLVESGGGLVKPGGSLRLSCAASGFTFGSYEMNWVRQAPGKGLEWVSSISEDGYSTYYPDSLKGRFTISRDSAKNSLYLQMNSLRADDTAVYYCARDFGGDTAWAGTGFTYWGQGTLVTVSS
VL: QSVLTQPPSVSGAPGQRITISCTGSSSNIGAGYDVHWYQQLPGTAPKLLIYGSSSRNYGVPDRFSGSKSGTSASLAITGLQAEDEADYYCQSYDSDLGVLYTFGTGTKVTVL
As usually defined, the Kd is a measure of binding affinity in units of concentration. As for B1, the Kd is 5.4 nM and 5 nM.

B2: ADI-77310 Fab (Fab, V domains shown)
VH: B1 VH with E33Y, D103H
VL: B1 VL with Y58S, G98S
Regarding B2, the Kd is 1 nM and 0.8 nM.

Values taken from paper doi:10.1101/2025.08.28.672883 (2025).
